Measured values from patent US20070196860.

B1: Akt1 (protein)
chain: MNDVAIVKEGWLHKRGEYIKTWRPRYFLLKNDGTFIGYKERPQDVDQRESPLNNFSVAQCQLMKTERPRPNTFIIRCLQWTTVIERTFHVETPEEREEWATAIQTVADGLKRQEEETMDFRSGSPSDNSGAEEMEVSLAKPKHRVTMNEFEYLKLLGKGTFGKVILVKEKATGRYYAMKILKKEVIVAKDEVAHTLTENRVLQNSRHPFLTALKYSFQTHDRLCFVMEYANGGELFFHLSRERVFSEDRARFYGAEIVSALDYLHSEKNVVYRDLKLENLMLDKDGHIKITDFGLCKEGIKDGATMKTFCGTPEYLAPEVLEDNDYGRAVDWWGLGVVMYEMMCGRLPFYNQDHEKLFELILMEEIRFPRTLGPEAKSLLSGLLKKDPTQRLGGGSEDAKEIMQHRFFANIVWQDVYEKKLSPPFKPQVTSETDTRYFDEEFTAQMITITPPDQDDSMECVDSERRPHFPQFSYSASGTA
B2: Akt3 (protein)
chain: SDVTIVKEGWVQKRGEYIKNWRPRYFLLKTDGSFIGYKEKPQDVDLPYPLNNFSVAKCQLMKTERPKPNTFIIRCLQWTTVIERTFHVDTPEEREEWTEAIQAVADRLQRQEEERMNCSPTSQIDNIGEEEMDASTTHHKRKTMNDFDYLKLLGKGTFGKVILVREKASGKYYAMKILKKEVIIAKDEVAHTLTESRVLKNTRHPFLTSLKYSFQTKDRLCFVMEYVNGGELFFHLSRERVFSEDRTRFYGAEIVSALDYLHSGKIVYRDLKLENLMLDKDGHIKITDFGLCKEGITDAATMKTFCGTPEYLAPEVLEDNDYGRAVDWWGLGVVMYEMMCGRLPFYNQDHEKLFELILMEDIKFPRTLSSDAKSLLSGLLIKDPNKRLGGGPDDAKEIMRHSFFSGVNWQDVYDKKLVPPFKPQVTSETDTRYFDEEFTAQTITITPPEKYDDDGMDGMDNERRPHFPQFSYSASGRE

Target: SEQ ID NO. 25, Ac-…dPSxG-NH2

Row | Protein | reaction rate, PDGF-treated NIH3T3 lysate | reaction rate, control treated NIH3T3 lysate
1 | B1 | The PDGF-treated sample showed a reaction rate of 1.13 RFU/sec | the control treated sample had a markedly reduced rate of 0.12 RFU/sec
2 | B2 | The PDGF-treated sample showed a reaction rate of 1.24 RFU/sec | the control treated sample had a markedly reduced rate of 0.28 RFU/sec
